Positions of bridges follow the written chain, without caps; N, C: chain ends. Non-standard residues stand in square brackets, D forms with d. Groups on a side chain read outwards from the residue. Primed or numbered codes have the meaning given here. No end group written: not given here. *: point of attachment. DOTA = O=C(O)CN1CCN(CC(=O)O)CCN(CC(=O)*)CCN(CC(=O)O)CC1; Biotin = O=C1N[C@H]2[C@H](CS[C@H]2CCCCC(=O)*)N1; Butanoyl(4-(4-I-phenyl)) = O=C(CCCc1ccc(I)cc1)*; Butanoyl(4-(4-MePh)) = Cc1ccc(CCCC(=O)*)cc1; Lys(N3) = [N-]=[N+]=NCCCC[C@H](N)C(=O)O; FB = fluorobenzaldehyde oxime; PEG10′ = PEG spacer, 10 units; PEG3′ = PEG spacer, 3 units; PEG7′ = PEG linker, 7 units; AO = aminooxy group, NO*; Pra = C#CC[C@H](N)C(=O)O
What was measured:
[1] = target: CD-1 mouse plasma proteins; experiment: plasma protein binding, equilibrium dialysis, LC-MS/MS; control
human plasma proteins [2] = experiment: as above
[3] = target: His-tagged FOLR1 human recombinant protein (11241-H08H, SinoBiological) (human) (UniProt P15328); experiment: ELISA, linker screen
[4] = target: CD-1 mouse plasma proteins; experiment: plasma protein binding, equilibrium dialysis, LC-MS/MS
human plasma proteins [5] = experiment: as above
[6] = target: His-tagged FOLR1 human recombinant protein (11241-H08H, SinoBiological) (human) (UniProt P15328); experiment: ELISA
[7] = target: His-tagged FOLR1 human recombinant protein (11241-H08H, SinoBiological) (human) (UniProt P15328); experiment: ELISA; remark: listed apart in the source
[8] = target: mouse recombinant FOLR1 (rMuFOLR1) (mouse, UniProt P35846); experiment: ELISA
[9] = target: FOLR1 on OVCAR3 cells (human ovarian adenocarcinoma, FOLR1 (+) cell line) (human) (UniProt P15328)
[10] = target: FOLR1 on OVCAR3 cells (human ovarian adenocarcinoma, FOLR1 (+) cell line) (human) (UniProt P15328); experiment: flow cytometry on OVCAR3 cells, no folate
[11] = target: His-tagged FOLR1 human recombinant protein (11241-H08H, SinoBiological) (human) (UniProt P15328); experiment: ELISA, against folate as reference
[12] = target: FOLR1 on OVCAR3 cells (human ovarian adenocarcinoma, FOLR1 (+) cell line) (human) (UniProt P15328); experiment: flow cytometry on OVCAR3 cells, with 0.1 µg/mL free folate as competitor
[13] = target: CD-1 mouse plasma proteins; experiment: plasma protein binding; value marked (FB)
human plasma proteins [14] = experiment: plasma protein binding; value marked (FB)

Row | Plasma % Bound [4] [%] | Plasma % Bound (human plasma proteins [5]) [%] | EC50 [6] [nM] | Molecule | further results
1 | – | – | – | Octreotide Acetate (peptide) | Plasma % Bound [1]: 62.4%; Plasma % Bound (human plasma proteins [2]): 59.4%
2 | – | – | – | [Pra][dD][dE][dR][dY][dT][Lys(N3)] (triazole N-C; also: conjugated to folate, attachment not said) [folate-deryt (SEQ ID NO:20) heterobiligand (construct not specified)] | EC50 [3]: 0.28 nM
3 | 29.5 | 46 | – | Fol-[dH][dS][dH][dT][dA]K(DOTA) (not fully specified (residue 5, bridges); printed as folate-hshta-PEG3-Lys(DOTA)) [Compound #1189, Fol-hshta-PEG3-Lys(DOTA)] | –
4 | – | – | 0.107 | [dH][dS][dH][dT][dA][Lys(N3)] (triazole N-C; not fully specified (N-terminus); also: folate joined through PEG linker and Tz (triazole) attachment) [folate-hshta Tz heterobiligand] | –
5 | – | – | > 10000 | [Pra][dK][dY][dE][dE][dT][Lys(N3)] (triazole N-C) [kyeet (SEQ ID NO:9) macrocyclic peptide ligand (PCC)] | –
6 | – | – | 3920 | [Pra][dH][dS][dH][dT][dA][Lys(N3)] (triazole N-C; also: further groups not given here) [hshta (SEQ ID NO:6) macrocyclic peptide ligand (PCC)] | EC50 [7]: 3400 nM; EC50 [8]: 2100 nM
7 | 96.3 | 98.3 | – | Fol-[dH][dS][dH][dT][dA]K(Butanoyl(4-(4-MePh)))GFK(DOTA) (not fully specified (residue 5, bridges)) [Compound #6305, folate-hshta-Lys(MPBA)-Gly-Phe-Lys(DOTA) (SEQ ID NO:6)] | –
8 | 96.5 | 94.9 | – | Fol-[dH][dS][dH][dT][dA]K(Butanoyl(4-(4-MePh)))GFK([PEG3′-DOTA]) (not fully specified (residue 5, bridges)) [Compound #3302, Fol-hshta-Lys(4-MPBA)-Gly-Phe-Lys(PEG3-DOTA)] | –
9 | – | – | – | Fol-[dH][dS][dH][dT][dA] (not fully specified (C-terminus, bridges); also: DyLight 650 label, site not given here) [DyLight650-labeled folate-hshta (SEQ ID NO:6) Nterm heterobiligand] | percentage of positively stained cells after acid wash (flow cytometry) [9]: 54.2%
10 | 20.2 | 43 | – | Fol-[dH][dS][dH][dT][dA]K(FB) (not fully specified (residue 5, bridges)) [Compound #2, Fol-hshta-PEG3-Lys(FB)] | –
11 | 99.6 | 99.5 | – | Fol-[dH][dS][dH][dT][dA]K(Butanoyl(4-(4-I-phenyl)))GFK(DOTA) (not fully specified (residue 5, bridges)) [Compound #1307, folate-hshta-Lys(IPBA)-Gly-Phe-Lys(DOTA) (SEQ ID NO:6)] | –
12 | – | – | 0.065 | Fol-[dH][dS][dH][dT][dA][PEG10′][PEG10′]K(Biotin) (not fully specified (bridges); printed as folate-hshta) [folate-hshta (SEQ ID NO:6) NTerm heterobiligand, Folate-hshta-PEG10-PEG10-K(Biotin)] | percentage of OVCAR3 cells binding [10]: 76.6%; EC50 [3]: 0.18 nM; EC50 [7]: 0.35 nM; EC50 [8]: 0.33 nM; fold greater affinity than folate itself [11]: 30 fold; percentage of OVCAR3 cells binding [12]: 57%
13 | – | – | 0.149 | [dK][dY][dE][dE][dT][Lys(N3)] (triazole N-C; not fully specified (N-terminus); also: folate joined through PEG linker and Tz (triazole) attachment) [folate-kyeet Tz heterobiligand] | –
14 | – | – | – | {Fol-PEG7′}-[dH][dS][dH][dT][dA] (also: triazole macrocycle (Pra/Az4 click), ends not placed) [Folate-PEG7-hshta heterobiligand] | EC50 [3]: 1 nM
15 | – | – | 0.11 | Fol-[dH][dS][dH][dT][dA]K(Butanoyl(4-(4-MePh)))[PEG10′][PEG10′]K(Biotin) (not fully specified (some residues, bridges); printed as Folate-hshta-MPBA) [Folate-hshta-MPBA: folate-hshta with the tag Lys(4-MPBA)-PEG10-PEG10-Lys(Biotin)] | –
16 | – | – | 10000 | [Pra][dD][dE][dR][dY][dT][Lys(N3)] (triazole N-C) [deryt (SEQ ID NO:20) macrocyclic peptide ligand (PCC)] | –
17 | 40.9 | 40.3 | – | [dH][dS][dH][dT][dA]GFK(DOTA) (not fully specified (residue 5, N-terminus, bridges); printed as folate-hshta-Gly-Phe-Lys(DOTA)) [Compound #7327, folate-hshta-Gly-Phe-Lys(DOTA) (SEQ ID NO:6)] | –
18 | – | – | 0.27 | [dD][dE][dR][dY][dT][Lys(N3)] (triazole N-C; not fully specified (N-terminus); printed as Pra(Az4-PEG3-folate)-deryt; also: N-terminal Pra joined by Tz (triazole) linker to Az4-PEG3-folate) [Pra(Az4-PEG3-folate)-deryt heterobiligand] | –
19 | 97.1 | 97.3 | – | Fol-[dH][dS][dH][dT][dA]K(Butanoyl(4-(4-I-phenyl)))MVK(DOTA) (not fully specified (residue 5, bridges)) [Compound #1306, folate-hshta-Lys(IPBA)-M-V-Lys(DOTA) (SEQ ID NO:6)] | –
20 | – | – | – | Fol-P[dH][dS][dH][dT][dA] (not fully specified (residue 1, C-terminus, bridges)) [Folate-Pro-hshta heterobiligand] | EC50 [3]: 0.9 nM
21 | – | – | 0.098 | Fol-[dH][dS][dH][dT][dA]K(DOTA)[PEG10′][PEG10′]K(Biotin) (not fully specified (some residues, bridges); printed as Folate-hshta-DOTA) [Folate-hshta-DOTA: folate-hshta with the tag Lys(DOTA)-PEG10-PEG10-Lys(Biotin)] | –
22 | – | – | – | Fol-G[dH][dS][dH][dT][dA] (not fully specified (residue 1, C-terminus, bridges)) [Folate-Gly-hshta heterobiligand] | EC50 [3]: 0.9 nM
23 | – | – | – | Fol-[dH][dS][dH][dT][dA]GFK(AO) (not fully specified (residue 5, bridges); printed as Fol-hshta-Gly-Phe-Lys(AO)) [Compound #3303, Fol-hshta-Gly-Phe-Lys(AO)] | Plasma % Bound [13]: 75.5%; Plasma % Bound (human plasma proteins [14]): 81%
24 | 92.1 | 83.3 | – | Fol-[dH][dS][dH][dT][dA]K(Butanoyl(4-(4-MePh)))K(DOTA) (not fully specified (residue 5, bridges); printed as folate-hshta-PEG3-Lys(MPBA)-Lys(DOTA)) [Compound #2809, folate-hshta-PEG3-Lys(MPBA)-Lys(DOTA) (SEQ ID NO:6)] | –
25 | – | – | 0.16 | K[dD][dE][dR][dY][dT] (not fully specified (residue 1, C-terminus, bridges); also: macrocycle (click Pra/Az4 or amide variant), ends not placed) [Lys(PEG3-Folate)-deryt heterobiligand] | –
26 | 40.6 | 41.3 | – | Fol-[dH][dS][dH][dT][dA]GFK(DOTA) (not fully specified (residue 5, bridges)) [Compound #6307, Fol-hshta-PEG3-Gly-Phe-Lys(DOTA)] | –

From patent US20240180856A1, “COMPOSITIONS, […] SYSTEMS, AND METHODS USEFUL IN TUMOR […]” (published 2024)
